Among the data in the supplement of paper PMC12042874 are amyloid nucleation score values, retold here.

± gives the uncertainty stated by the source.

A short description of this series: amyloid nucleation score (Sup35N fusion, yeast selection) (log enrichment); library NNK3; higher = more nucleation; inactive = no reads after selection. The gist of the method: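 Growth for 7 days at 30°C on medium lacking adenine and uracil followed a 24-hour induction with 100 μM copper sulfate of psi-negative yeast expressing peptides of 20 random codons fused to Sup35N. Input and output plasmid inserts were sequenced with Illumina, and sequences with under 100 input reads were excluded. Nucleation score is the DiMSum log enrichment of output over input reads, centred on the mode score of non-aggregating sequences.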
In the case of GPRMCMQLRS, the amyloid nucleation score result was “inactive”.

Regarding GPTLSGLNIAHWSNIYQDLG, the amyloid nucleation score result was “inactive”.

On to GQEGSRN, for which the amyloid nucleation score came out at 0.186 ± 0.53.

For GQKDCYFLIMYIREVLNRYT, the amyloid nucleation score result is “inactive”.

As to GQSLLFRISLISCV, the amyloid nucleation score was 0.199 ± 0.23.

As to GQWELGHFQCKVPYLLSQLL, the amyloid nucleation score result is “inactive”.

For the substance GRCFKFCNLDT, the amyloid nucleation score entry was “inactive”.

With GRIQPCISRAAGPDAGVMGL, the amyloid nucleation score result was “inactive”.

With GRMFVNVNFAIQCYMAFTYL, the amyloid nucleation score stood at 2.42 ± 0.071.

On to GRNRHTYDRLYCPFVRSLIV, for which the amyloid nucleation score result is “inactive”.

For the substance GRRYVLEENSVIISWCVIYY, the amyloid nucleation score entry is “inactive”.

In the case of GRTVTVWMFASVRRGVTGYV, the amyloid nucleation score result is “inactive”.

As for GRTWFKYPHSDSGCSFWLTA, the amyloid nucleation score entry was “inactive”.

For the substance GSALSSLFQCLLFPLSVSVL, the amyloid nucleation score was 0.49 ± 0.21.

Consider GSDFTESCVDFFLVVNVDAV, for which the amyloid nucleation score result was “inactive”.

For the substance GSDVMSGG, the amyloid nucleation score entry is “inactive”.

Turning to GSFMDHKTR, the amyloid nucleation score is -0.382 ± 1.1.

For the substance GSFNFCSNAARFQ, the amyloid nucleation score result was “inactive”.

For the substance GSFSCWYCEVVNVV, the amyloid nucleation score result was “inactive”.

In turn, GSGGYWFMINVPENKIWVYL displayed an amyloid nucleation score of 1.72 ± 0.11.

Turning to GSGRNLSVLVYRLWVDGPTG, the amyloid nucleation score result is “inactive”.

Substance GSICFNPTVWLVSRYRCS showed an amyloid nucleation score of 1.19 ± 0.12.

As to GSIDFSSSCECIGDWHHRGY, the amyloid nucleation score result was “inactive”.

Regarding GSKYMQRHLNTI, the amyloid nucleation score entry is “inactive”.

GSLCFGLDSSPSTKIYLYDS: the amyloid nucleation score result was “inactive”.

For GSLIMSLAR, the amyloid nucleation score result was “inactive”.

Regarding GSLMRVLLFEYLMDTCLWIV, the amyloid nucleation score result was “inactive”.

For GSSDNGFFCSLNMN, the amyloid nucleation score entry was “inactive”.

As for GSSTYLTDLPTSPPSVFSSL, the amyloid nucleation score result was “inactive”.

Consider GSVSYLNMTVFFSTVLFIYT, for which the amyloid nucleation score result was “inactive”.

As to GSVTGAFERYVKKEA, the amyloid nucleation score result is “inactive”.

For GSWLNSYVELTCVFFGSFYM, the amyloid nucleation score entry was “inactive”.

As for GSYSNAHTPQF, the amyloid nucleation score stood at 0.695 ± 0.2.

As for GTGEGNDLCARQNPLHQRII, the amyloid nucleation score entry is “inactive”.

For GTLVWNCDGCLDLKGRWVGG, the amyloid nucleation score entry was “inactive”.

For the substance GTQCWLILCADNLNVLGIGL, the amyloid nucleation score was determined as 2.58 ± 0.065.

On to GTVLNSLPQQVGCLRLGSQG, for which the amyloid nucleation score entry is “inactive”.

For the substance GTVSSYLRTHSKVFSRRFRD, the amyloid nucleation score entry is “inactive”.

For GTYPSKIKGFTLKGNLR, the amyloid nucleation score result was “inactive”.

In the case of GVAELMGVWDVKLVVPLEES, the amyloid nucleation score result is “inactive”.

For GVAIAYHEFVDCSFFNYNIV, the amyloid nucleation score turned out to be 2.38 ± 0.054.

With GVAPYFQCVLIEEERVEGQG, the amyloid nucleation score entry is “inactive”.

For GVHHDCDYCRYLDDDVKLWW, the amyloid nucleation score entry was “inactive”.

In the case of GVITISREDQYLAVGVIQWI, the amyloid nucleation score result was “inactive”.

On to GVKLVPAAIVGYASLQGL, for which the amyloid nucleation score was -0.375 ± 0.83.

For the substance GVNCLSLGSKIICGSTGWFL, the amyloid nucleation score came to 2.47 ± 0.087.

Turning to GVNDRGNKRYAPYKTWLRLE, the amyloid nucleation score entry is “inactive”.

The substance GVNWFSIQFNIWVLSRDADL returned an amyloid nucleation score of 3.36 ± 0.06.

In the case of GVRHLYVPMFHFVIMGRWHH, the amyloid nucleation score entry is “inactive”.

Turning to GVSDVVFWSIGYHGRRISQS, the amyloid nucleation score entry is “inactive”.

With GVVSCHSFSRRRKALRGYSS, the amyloid nucleation score result is “inactive”.

In the case of GVVSSSPMCVNSDREVVEKT, the amyloid nucleation score result is “inactive”.

For GVWRLATHGYSQ, the amyloid nucleation score entry is “inactive”.

Substance GWAMTWNDVYLSYSIYSHSK displayed an amyloid nucleation score of 0.514 ± 0.4.

As for GWKLSSVGNKRDCSSMHVDR, the amyloid nucleation score amounted to 0.101 ± 0.19.

Regarding GWLKNNYSTYDTEKKFTATF, the amyloid nucleation score result is “inactive”.

Substance GWLYYQLNLDNTSVRQHWSV gave an amyloid nucleation score of 0.587 ± 0.24.

Consider GWRAIWGNWNLQYRTS, for which the amyloid nucleation score result was “inactive”.

On to GYAISRFVFDTFRIFAVL, for which the amyloid nucleation score entry is “inactive”.

As for GYCGQVCWFNAKSWMKRMTF, the amyloid nucleation score entry is “inactive”.

As to GYFARLR, the amyloid nucleation score entry is “inactive”.

As for GYKDIDLTSERGK, the amyloid nucleation score result was “inactive”.

GYQLLNHLHAYTAGTNNLRL: the amyloid nucleation score result was “inactive”.

Turning to GYVSALMMIFYYHLWKKGPC, the amyloid nucleation score result is “inactive”.

The substance GYYLLTVCGDWCSVSVHSGF yielded an amyloid nucleation score of 2.13 ± 0.078.

Turning to HAAYGKCLQWFTRLVCYPVA, the amyloid nucleation score entry was “inactive”.

In the case of HAMCHVVGTRISGYLCAYGT, the amyloid nucleation score entry was “inactive”.

As for HASSWFYWRIFASGLNSDR, the amyloid nucleation score result was “inactive”.

HATGSMNVSVSAGVRQQILR: the amyloid nucleation score result was “inactive”.

For HAVYL, the amyloid nucleation score result is “inactive”.

As for HAWTQPNHI, the amyloid nucleation score result was “inactive”.

With HAYSWVLFAVMSLSRLPTWN, the amyloid nucleation score entry is “inactive”.

For the substance HCEFRSQSDTNVVNLCGQGW, the amyloid nucleation score result is “inactive”.

With HCGRTEKDGQLCCENLSGFS, the amyloid nucleation score result was “inactive”.

For HCHCIVEYQFFSVHLIRTYE, the amyloid nucleation score entry was “inactive”.

Regarding HDSQMWYLSIIESYLVQYLM, the amyloid nucleation score entry is “inactive”.

Take HEIPETQFCSIWFDSVCWCL: the amyloid nucleation score entry was “inactive”.

HFHSVIELVYG: the amyloid nucleation score entry is “inactive”.

Turning to HFILFSSYPFYF, the amyloid nucleation score result is “inactive”.

With HFNCRYNAGCDGVLVFDVLL, the amyloid nucleation score entry was “inactive”.

As to HFSMHITMLEFLTFNSARRV, the amyloid nucleation score was determined as 2.3 ± 0.075.

For the substance HFSSYAFLRTWTLYRHLTFM, the amyloid nucleation score entry is “inactive”.

For the substance HFYYPLCWVCSVLLSHLVPD, the amyloid nucleation score result is “inactive”.

As to HGFMI, the amyloid nucleation score result was “inactive”.

For HGSLMATGICWLGIFVSEVA, the amyloid nucleation score entry is “inactive”.

In turn, HHNTYCYVLFELFTV yielded an amyloid nucleation score of 0.505 ± 0.49.

HICLA: the amyloid nucleation score result is “inactive”.

Take HIILFSIKSSKD: the amyloid nucleation score was 1.37 ± 0.12.

HIKVVRPRSRCDLLGSPISQ: the amyloid nucleation score entry was “inactive”.

Consider HILFLYRDLVILVLCSSHPC, for which the amyloid nucleation score entry was “inactive”.

HILSCSQVFG registered an amyloid nucleation score of 0.025 ± 0.6.

Take HISRYEITVGCLIFRLLTRE: the amyloid nucleation score worked out at 2.46 ± 0.054.

With HIVIISYFRLLWSCIAPHGA, the amyloid nucleation score result was “inactive”.

HKNVCRIQRR: the amyloid nucleation score result is “inactive”.

Turning to HKVQESAY, the amyloid nucleation score entry was “inactive”.

Consider HKWLV, for which the amyloid nucleation score entry was “inactive”.

As to HLIMNSDLGAATNIFMNPVA, the amyloid nucleation score result was “inactive”.

For HLLEVFKDSCRTRGRMLLWG, the amyloid nucleation score result is “inactive”.

With HLLYYVCRHQQFLWMDVQVE, the amyloid nucleation score entry was “inactive”.

For the substance HLPWFRVGATDMLSYTKSLG, the amyloid nucleation score result was “inactive”.

Take HLRKVCGGFM: the amyloid nucleation score result is “inactive”.

HLTVVSSKYITPSGTLMELH showed an amyloid nucleation score of 0.648 ± 0.27.

On to HMEYLKQLFFRTVLFTDQSV, for which the amyloid nucleation score entry is “inactive”.

As to HMFMRNLEMRVGHSFHRLRD, the amyloid nucleation score entry is “inactive”.

HMFRVVPSLIRI: the amyloid nucleation score result is “inactive”.

On to HMIRAVFLSCMSASILVTIK, for which the amyloid nucleation score was -0.366 ± 0.53.

HMLYLNLFGIIGIIFCDWNM: the amyloid nucleation score entry is “inactive”.

Consider HMNGEDESDNGYIHFLRRER, for which the amyloid nucleation score entry was “inactive”.

HNCPFFSTDMKCSKNIHIFG had an amyloid nucleation score of 1.78 ± 0.077.

Consider HNLHSYEHRVRTSQAV, for which the amyloid nucleation score result was “inactive”.

As to HNPLVRFAQHLLITEDQCMN, the amyloid nucleation score result was “inactive”.

For HNQKSCVYMSEGSWRSL, the amyloid nucleation score result was “inactive”.

On to HNSYRED, for which the amyloid nucleation score result is “inactive”.

For HNVFST, the amyloid nucleation score result is “inactive”.

Regarding HPVLRIRLLREKMMRFS, the amyloid nucleation score entry is “inactive”.

In the case of HQVNVLWQVYILAFSLTSRH, the amyloid nucleation score result was “inactive”.

For the substance HQWYG, the amyloid nucleation score entry is “inactive”.

Take HRLTCELFTWMPAEVCVWAD: the amyloid nucleation score entry is “inactive”.

On to HRRSMQLWG, for which the amyloid nucleation score entry is “inactive”.

With HRSIRLYSETDWFRGLGSAG, the amyloid nucleation score result is “inactive”.

Consider HRYYCRLVFVEQTRDNIQPW, for which the amyloid nucleation score entry is “inactive”.

With HSCMCKSLNASLMVDVRLPR, the amyloid nucleation score result was “inactive”.

Take HSDFY: the amyloid nucleation score entry is “inactive”.

In the case of HSGETIYKVWMMGSRTEIAW, the amyloid nucleation score result was “inactive”.

HSINV: the amyloid nucleation score entry was “inactive”.

As to HSLHMGRKAMQYEYTQPAGI, the amyloid nucleation score entry was “inactive”.

As to HSLHMKVCCWGSCEIFSMVR, the amyloid nucleation score entry was “inactive”.

With HSLTGSHSFVGF, the amyloid nucleation score result was “inactive”.

HSPKPKGWFDGTNSRDGKLY: the amyloid nucleation score entry is “inactive”.

For the substance HSRTGLGLHKLRMAVGFCIN, the amyloid nucleation score result is “inactive”.
